The values below come from patent US20170247441A1 (Hoffmann-La Roche, published 2017).

The target in test [1] is T1, human ANG2-RBD-Fc-region fusion (human, UniProt O15123 275-496, limits assumed).
T1 construct: not shown: Fc-region
T1 sequence: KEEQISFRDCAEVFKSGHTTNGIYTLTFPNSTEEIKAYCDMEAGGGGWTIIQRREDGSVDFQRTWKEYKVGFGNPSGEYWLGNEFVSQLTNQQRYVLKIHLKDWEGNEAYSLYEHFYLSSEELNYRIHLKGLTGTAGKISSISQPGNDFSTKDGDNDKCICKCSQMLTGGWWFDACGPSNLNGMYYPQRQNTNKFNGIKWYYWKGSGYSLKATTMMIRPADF
As to the kind of experiment: SPR, human ANG2-RBD-Fc captured, 1:1 model. A general note: SPR reads the build-up and loss of mass on a sensor chip optically.

The target in test [2] is T1, human ANG2-RBD-Fc-region fusion. As to the kind of experiment: SPR, human ANG2; ANG2/VEGF bispecific CrossMab.

B1: 0025 (Fab)
heavy: not shown
light: SYVLTQPPSVSVAPGQTARITCGGNNIGSKSVHWYQQKPGQAPVLVVYDDSDRPSGIPERFSGSNSGNTATLTISRVEAGDEADYYCQVWDSSSDHWVFGGGTKLTVLSSASTKGPSVFPLAPSSKSTSGGTAALGCLVKDYFPEPVTVSWNSGALTSGVHTFPAVLQSSGLYSLSSVVTVPSSSLGTQTYICNVNHKPSNTKVDKKVEPKSC
notes: CrossFab CL-CH1, valency 1; differences VH: T28N, T30V; VL: wt
In the case of B1, in test [1], the koff (usually a measure of how fast the partners let go of each other) came out at 0.0702 s⁻¹, the kon (usually a measure of how fast the partners come together) came to 1.87e+06 M⁻¹ s⁻¹ and the “t1/2” value was found to be 10 s.

B2: Xang2-0165 (bispecific antibody, human IgG1, kappa, L234A L235A)
heavy 1: not shown
light 1: SYVLTQPPSVSVAPGQTARITCGGNNIGSKSVHWYQQKPGQAPVLVVYDTSDRPSGIPERFSGSNSGNTATLTISRVEAGDEADYYCQVWDSSSDHWVFGGGTKLTVLSSASTKGPSVFPLAPSSKSTSGGTAALGCLVKDYFPEPVTVSWNSGALTSGVHTFPAVLQSSGLYSLSSVVTVPSSSLGTQTYICNVNHKPSNTKVDKKVEPKSC
heavy 2: EVQLVESGGGLVQPGGSLRLSCAASGYDFTHYGMNWVRQAPGKGLEWVGWINTYTGEPTYAADFKRRFTFSLDTSKSTAYLQMNSLRAEDTAVYYCAKYPYYYGTSHWYFDVWGQGTLVTVSSASTKGPSVFPLAPSSKSTSGGTAALGCLVKDYFPEPVTVSWNSGALTSGVHTFPAVLQSSGLYSLSSVVTVPSSSLGTQTYICNVNHKPSNTKVDKKVEPKSCDKTHTCPPCPAPEAAGGPSVFLFPPKPKDTLMASRTPEVTCVVVDVSHEDPEVKFNWYVDGVEVHNAKTKPREEQYNSTYRVVSVLTVLAQDWLNGKEYKCKVSNKALGAPIEKTISKAKGQPREPQVYTLPPCRDELTKNQVSLWCLVKGFYPSDIAVEWESNGQPENNYKTTPPVLDSDGSFFLYSKLTVDKSRWQQGNVFSCSVMHEALHNAYTQKSLSLSPGK
light 2: not shown
notes: ANG2/VEGF bispecific CrossMab CL-CH1, valency for ANG2 1; ANG2 VH: S100dP, G100jA, T30A, T28N; VL: D50T; VEGF: wt2
Regarding B2, in test [2], binding was put at a Kd of 4 nM, the koff turned out to be 0.00112 s⁻¹, the kon stood at 302000 M⁻¹ s⁻¹ and the “t1/2” value came to 619 s.

B3: XAng2-0156 (Fab)
heavy: not shown
light: QPGLTQPPSVSVAPGQTARITCGGNNIGSKSVHWYQQKPGQAPVLVVYDTSDRPSGIPERFSGSNSGNTATLTISRVEAGDEADYYCQVWDSSSDHYVFGTGTKVTVLSSASTKGPSVFPLAPSSKSTSGGTAALGCLVKDYFPEPVTVSWNSGALTSGVHTFPAVLQSSGLYSLSSVVTVPSSSLGTQTYICNVNHKPSNTKVDKKVEPKSC
notes: CrossFab CL-CH1, valency 1; differences VH: S100dP, G100jA, T28N, T30A, D100bS; VL: D50T
Consider B3, for which, in test [1], the koff amounted to 0.0031 s⁻¹, the kon was 675000 M⁻¹ s⁻¹ and the “t1/2 (S)” value was determined as 224 s.

B4: XAng2-0155 (Fab)
heavy: not shown
light: QPGLTQPPSVSVAPGQTARITCGGNNIGSKSVHWYQQKPGQAPVLVVYDTSDRPSGIPERFSGSNSGNTATLTISRVEAGDEADYYCQVWDSSSDHYVFGTGTKVTVLSSASTKGPSVFPLAPSSKSTSGGTAALGCLVKDYFPEPVTVSWNSGALTSGVHTFPAVLQSSGLYSLSSVVTVPSSSLGTQTYICNVNHKPSNTKVDKKVEPKSC
notes: CrossFab CL-CH1, valency 1; differences VH: S100dP, G100jA, T28N, T30A; VL: D50T
In the case of B4, in test [1], the koff amounted to 0.0319 s⁻¹, the association rate constant (kon) stood at 746000 M⁻¹ s⁻¹ and the “t1/2 (S)” value turned out to be 22 s.

B5: 0057 (Fab)
heavy: not shown
light: SYVLTQPPSVSVAPGQTARITCGGNNIGSKSVHWYQQKPGQAPVLVVYDDSDRPSGIPERFSGSNSGNTATLTISRVEAGDEADYYCQVWDSSSDHWVFGGGTKLTVLSSASTKGPSVFPLAPSSKSTSGGTAALGCLVKDYFPEPVTVSWNSGALTSGVHTFPAVLQSSGLYSLSSVVTVPSSSLGTQTYICNVNHKPSNTKVDKKVEPKSC
notes: CrossFab CL-CH1, valency 1; differences VH: S100dP, G100jA, T28N, T30A, D100bE; VL: wt
B5: in test [1], the koff was 0.0948 s⁻¹, the kon stood at 3.28e+06 M⁻¹ s⁻¹ and the “t1/2” value amounted to 7 s.

B6: XAng2-0033 (Fab)
heavy: not shown
light: SYVLTQPPSVSVAPGQTARITCGGNNIGSKSVHWYQQKPGQAPVLVVYDDSDRPSGIPERFSGSNSGNTATLTISRVEAGDEADYYCQVWDSSSDHWVFGGGTKLTVLSSASTKGPSVFPLAPSSKSTSGGTAALGCLVKDYFPEPVTVSWNSGALTSGVHTFPAVLQSSGLYSLSSVVTVPSSSLGTQTYICNVNHKPSNTKVDKKVEPKSC
notes: CrossFab CL-CH1, valency 1; differences VH: T28N, S100dP, G100jA; VL: wt
In the case of B6, in test [1], the koff came out at 0.00225 s⁻¹, the kon stood at 753000 M⁻¹ s⁻¹ and the “t1/2” value is 308 s.

B7: 0027 (Fab)
heavy: not shown
light: SYVLTQPPSVSVAPGQTARITCGGNNIGSKSVHWYQQKPGQAPVLVVYDDSDRPSGIPERFSGSNSGNTATLTISRVEAGDEADYYCQVWDSSSDHWVFGGGTKLTVLSSASTKGPSVFPLAPSSKSTSGGTAALGCLVKDYFPEPVTVSWNSGALTSGVHTFPAVLQSSGLYSLSSVVTVPSSSLGTQTYICNVNHKPSNTKVDKKVEPKSC
notes: CrossFab CL-CH1, valency 1; differences VH: T28N, T30K; VL: wt
For B7, in test [1], the koff was 0.165 s⁻¹, the association rate constant (kon) is 2.4e+06 M⁻¹ s⁻¹ and the “t1/2” value was 4 s.

B8: 0074 (Fab)
heavy: not shown
light: SYVLTQPPSVSVAPGQTARITCGGNNIGSKSVHWYQQKPGQAPVLVVYDDSDRPSGIPERFSGSNSGNTATLTISRVEAGDEADYYCQVWDSSSDHWVFGGGTKLTVLSSASTKGPSVFPLAPSSKSTSGGTAALGCLVKDYFPEPVTVSWNSGALTSGVHTFPAVLQSSGLYSLSSVVTVPSSSLGTQTYICNVNHKPSNTKVDKKVEPKSC
notes: CrossFab CL-CH1, valency 1; differences VH: S100dP, G100jA, T28N, T30A, D100bS; VL: wt
On to B8, for which, in test [1], the off-rate constant (koff) turned out to be 0.0366 s⁻¹, the kon is 2.27e+06 M⁻¹ s⁻¹ and the “t1/2” value came to 19 s.

B9: 0060 (Fab)
heavy: not shown
light: SYVLTQPPSVSVAPGQTARITCGGNNIGSKSVHWYQQKPGQAPVLVVYDTSDRPSGIPERFSGSNSGNTATLTISRVEAGDEADYYCQVWDSSSDHWVFGGGTKLTVLSSASTKGPSVFPLAPSSKSTSGGTAALGCLVKDYFPEPVTVSWNSGALTSGVHTFPAVLQSSGLYSLSSVVTVPSSSLGTQTYICNVNHKPSNTKVDKKVEPKSC
notes: CrossFab CL-CH1, valency 1; differences VH: S100dP, G100jA, T28N, T30A, D100bE; VL: D50T
With B9, in test [1], the koff is 0.0786 s⁻¹, the kon is 3.72e+06 M⁻¹ s⁻¹ and the “t1/2” value worked out at 9 s.

B10: XAng2-0026 (Fab)
heavy: not shown
light: SYVLTQPPSVSVAPGQTARITCGGNNIGSKSVHWYQQKPGQAPVLVVYDDSDRPSGIPERFSGSNSGNTATLTISRVEAGDEADYYCQVWDSSSDHWVFGGGTKLTVLSSASTKGPSVFPLAPSSKSTSGGTAALGCLVKDYFPEPVTVSWNSGALTSGVHTFPAVLQSSGLYSLSSVVTVPSSSLGTQTYICNVNHKPSNTKVDKKVEPKSC
notes: CrossFab CL-CH1, valency 1; differences VH: T28N, T30A; VL: wt
As for B10, in test [1], the koff stood at 0.0371 s⁻¹, the on-rate (kon) is 2.03e+06 M⁻¹ s⁻¹ and the “t1/2” value is 19 s.

B11: 0061 (Fab)
heavy: not shown
light: SYVLTQPPSVSVAPGQTARITCGGNNIGSKSVHWYQQKPGQAPVLVVYDTSDRPSGIPERFSGSNSGNTATLTISRVEAGDEADYYCQVWDSSSDHWVFGGGTKLTVLSSASTKGPSVFPLAPSSKSTSGGTAALGCLVKDYFPEPVTVSWNSGALTSGVHTFPAVLQSSGLYSLSSVVTVPSSSLGTQTYICNVNHKPSNTKVDKKVEPKSC
notes: CrossFab CL-CH1, valency 1; differences VH: S100dP, G100jA, T28N, T30A, D100bT; VL: D50T
Take B11: in test [1], the koff stood at 0.0314 s⁻¹, the kon was determined as 1.8e+06 M⁻¹ s⁻¹ and the “t1/2” value is 22 s.

B12: 0028 (Fab)
heavy: not shown
light: SYVLTQPPSVSVAPGQTARITCGGNNIGSKSVHWYQQKPGQAPVLVVYDDSDRPSGIPERFSGSNSGNTATLTISRVEAGDEADYYCQVWDSSSDHWVFGGGTKLTVLSSASTKGPSVFPLAPSSKSTSGGTAALGCLVKDYFPEPVTVSWNSGALTSGVHTFPAVLQSSGLYSLSSVVTVPSSSLGTQTYICNVNHKPSNTKVDKKVEPKSC
notes: CrossFab CL-CH1, valency 1; differences VH: T30K; VL: wt
With B12, in test [1], the koff is 0.259 s⁻¹, the kon was found to be 1.81e+06 M⁻¹ s⁻¹ and the “t1/2” value stood at 3 s.

B13: 0058 (Fab)
heavy: not shown
light: SYVLTQPPSVSVAPGQTARITCGGNNIGSKSVHWYQQKPGQAPVLVVYDDSDRPSGIPERFSGSNSGNTATLTISRVEAGDEADYYCQVWDSSSDHWVFGGGTKLTVLSSASTKGPSVFPLAPSSKSTSGGTAALGCLVKDYFPEPVTVSWNSGALTSGVHTFPAVLQSSGLYSLSSVVTVPSSSLGTQTYICNVNHKPSNTKVDKKVEPKSC
notes: CrossFab CL-CH1, valency 1; differences VH: S100dP, G100jA, T28N, T30A, D100bT; VL: wt
As to B13, in test [1], the koff was found to be 0.0383 s⁻¹, the kon was found to be 1.8e+06 M⁻¹ s⁻¹ and the “t1/2” value came to 18 s.

B14: XAng2-0017 (Fab)
heavy: not shown
light: SYVLTQPPSVSVAPGQTARITCGGNNIGSKSVHWYQQKPGQAPVLVVYDDSDRPSGIPERFSGSNSGNTATLTISRVEAGDEADYYCQVWDSSSDHWVFGGGTKLTVLSSASTKGPSVFPLAPSSKSTSGGTAALGCLVKDYFPEPVTVSWNSGALTSGVHTFPAVLQSSGLYSLSSVVTVPSSSLGTQTYICNVNHKPSNTKVDKKVEPKSC
notes: CrossFab CL-CH1, valency 1; VL: wt
As for B14, in test [1], the off-rate constant (koff) amounted to 0.0357 s⁻¹, the kon worked out at 3.03e+06 M⁻¹ s⁻¹ and the “t1/2” value worked out at 19 s.

B15: 0040 (Fab)
heavy: not shown
light: SYVLTQPPSVSVAPGQTARITCGGNNIGSKSVHWYQQKPGQAPVLVVYDDSDRPSGIPERFSGSNSGNTATLTISRVEAGDEADYYCQVWDSSSDHWVFGGGTKLTVLSSASTKGPSVFPLAPSSKSTSGGTAALGCLVKDYFPEPVTVSWNSGALTSGVHTFPAVLQSSGLYSLSSVVTVPSSSLGTQTYICNVNHKPSNTKVDKKVEPKSC
notes: CrossFab CL-CH1, valency 1; differences VH: S100dP, G100jA, T28N, T30V; VL: wt
As for B15, in test [1], the Kd (commonly the equilibrium constant for the complex coming apart) is 2.3 nM, the koff worked out at 0.00592 s⁻¹, the on-rate (kon) came to 2.59e+06 M⁻¹ s⁻¹ and the “t1/2” value came to 117 s.

B16: 0042 (Fab)
heavy: not shown
light: SYVLTQPPSVSVAPGQTARITCGGNNIGSKSVHWYQQKPGQAPVLVVYDDSDRPSGIPERFSGSNSGNTATLTISRVEAGDEADYYCQVWDSSSDHWVFGGGTKLTVLSSASTKGPSVFPLAPSSKSTSGGTAALGCLVKDYFPEPVTVSWNSGALTSGVHTFPAVLQSSGLYSLSSVVTVPSSSLGTQTYICNVNHKPSNTKVDKKVEPKSC
notes: CrossFab CL-CH1, valency 1; differences VH: S100dP, G100jA, T28N, T30K; VL: wt
As to B16, in test [1], the koff is 0.0128 s⁻¹, the kon came out at 3.22e+06 M⁻¹ s⁻¹ and the “t1/2” value amounted to 54 s.
